Test results taken from PMC3162888.

Substrate: N=C(N)NCCCC(NC(=O)c1ccccc1)C(=O)Nc1ccc([N+](=O)[O-])cc1
Test: purified protein
Conditions: 20 mM TRIS-HCl, 10 mM CaCl2, pH 8.0, 24°C

Protein	Km (20 nM enzyme) [µM]	kcat (20 nM enzyme) [s⁻¹]	kcat/Km (20 nM enzyme) [M⁻¹ s⁻¹]	Km (50 nM enzyme) [µM]	kcat (50 nM enzyme) [s⁻¹]	kcat/Km (50 nM enzyme) [M⁻¹ s⁻¹]
AaET (Aedes aegypti) (protein) IVGGFQIDIAEVPHQVSLQRSGRHFCGGSIISPRWVLTAAHCTTNTDPAAYTIRAGSTDRTNGGIIVKVKSVIPHPQYNGDTYNYDFSLLELDESIGFSRSIEAIALPEASETVADGAMCTVSGWGDTKNVFEMNTLLRAVNVPSYNQAECAAALVNVVPVTEQMICAGYAAGGKDSCQGDSGGPLVSGDKLVGVVSWGKGCALPNLPGVYARVSTVRQWIREVSEV	63.0 ± 1.3	2.03	32300			
AaSPVII (Aedes aegypti) (protein) VVGGYEVDVKDIPFQVSLQNTYGHFCGGSIISERWVLTAGHCASPRDHGLKVRVGSSQHASGGQLYKVAKIHQHPQYNPSTIDYDFCLLELEKAITFSEVSQSVDLPKLNDPVQDGTLLQVSGWGYTQNPSESRDVLRATNVPAVSQKECSRAYQGTNAVTDRMVCAGYKEGGKDSCQGDSGGPLVEGNTLVGVVSWGVGCAQAGYPGVYSRVAAVRDWVAEVSGV				19.2 ± 1.0	0.35	18500
